Two molecules from patent US9428783B2, “DNA encoding dipeptide-synthesizing enzyme (variants), bacterium belonging to the genus Escherichia, and methods for producing dipeptides using thereof” (Ajinomoto Co., Inc., priority 2012, dated 2016) can be followed below.

Common to all, as to type: biochemical
Assay [1] can be described thus: HPLC determination of dipeptides synthesized by the enzymes. Conditions: 160 μg enzyme, 10 mM substrates, 10 mM ATP, pH 9.0, 32° C., 15 hours. Here is the method: Dipeptides synthesized by BBR47_51900 and Staur_4851 were determined using HPLC analysis of reaction mixtures of total volume of 400 μL, which contained:
Reactions were carried out at 32° C. for 15 hours. Then […] of reaction mixture was filtered through the Amicon Ultra-0.5 mL, 3K Centrifugal Filters (Millipore, #UFC500396) and subjected to HPLC analysis.
The conditions were as follows: • Equipment: HITACHI L-2000 series. • Column: Inertsil ODS-3 4.6×250 mm, […] (GL Sciences Inc.). • Temperature: 40° C. • Buffers:
A (for mixture L-Asp/L-Val and L-Glu/L-Val): 0.1 M KH2PO4 (pH 2.2)+5 mM octanesulfonate, sodium salt: CH3CN as 4:1 (v/v),
B (for mixture L-Asp/L-Phe): 0.1 M KH2PO4 (pH 2.2)+5 mM octanesulfonate, sodium salt: CH3CN as 7:3 (v/v),
C (for mixture L-Asp/L-PheOMe, L-Asp/L-Trp, and L-Val/L-Val): 0.1 M KH2PO4 (pH 2.2)+5 mM octanesulfonate, sodium salt:CH3CN as 3:2 (v/v),
D (for mixture L-Phe/L-Phe): 0.1 M KH2PO4 (pH 2.2)+5 mM octanesulfonate, sodium salt: CH3CN as 1:1 (v/v). • Gradient profile: isocratic. • Flow rate: 1.5 mL/min. • Injection volume: 10 μL. • Detection: UV 210 nm.
Solution of αGlu-Val, γGlu-Val, αAsp-Val (10 mM each) and αAsp-Phe, βAsp-Phe (5 mM each) were prepared for HPLC analysis. The concentration of a dipeptide formed was determined using corresponding calibration curves. Each solution with standard sample was diluted to 50-folds or 100-folds for LC-QTOF/MS/MS analysis (Example 5).

Assay [2] is described as follows: Enzymatic production of Asp-Phe using ATP regeneration system. The settings on record: 0.15 U enzyme, 100 mM L-AspNa, 100 mM L-Phe, 37° C. As to the method:
The product yield of Asp-Phe was studied in the reaction mixture of BBR47_51900 and Staur_4851 containing phosphoenolpyruvate and pyruvate kinase for regeneration of ATP in order to prevent highly concentrated ATP from inhibiting the enzyme reaction. The composition of the reaction mixture of total volume of 1 ml was as follows.
Reactions were carried out at 37° C. for 1-48 hours. 100 μL out of the 1 mL reaction mixture was sampled at each reaction time. Each reaction mixture, into which 10 μL of 1 M EDTA (pH9.0) was added to stop the reaction, was subjected to HPLC analysis. The condition was as described in Example 4. As a result, BBR47_51900 and Staur_4851 could produce Asp-Phe in the ATP regeneration system (Table 9).

Assay [3] can be described thus: LC-QTOF/MS/MS determination of dipeptides synthesized. The settings on record: reaction mixtures of Example 4. An excerpt:
Samples of reaction mixtures and standard solutions obtained as described in Example 4 were subjected to LC-QTOF/MS/MS analysis.
The conditions were as follows:
Equipment: LC (Agilent1200SL), MS (Micromass Q-TOF Premier)
Column: Develosil C30 2.0×250 mm, 3 μm (Nomura Chemical).
Buffers: • A: H2O (0.025% Formic acid), • B: CH3CN (0.025% Formic acid).

Assay [4] in a line: Preliminary analysis of substrate specificity by TLC. The settings on record: 4 μg enzyme, 10 mM each amino acid, 10 mM ATP, pH 8.0, 32° C., 15 hours. An excerpt: The substrate specificity of BBR47_51900 and Staur_4851 was studied in the reaction mixture containing the enzyme and canonical L-amino acids such as L-alanine, L-arginine, L-asparagine, L-aspartic acid, L-cysteine, glycine, L-glutamic acid, L-glutamine, L-histidine, L-isoleucine, L-leucine, L-lysine, L-methionine, L-phenylalanine, L-proline, L-serine, L-threonine, L-tryptophan, L-tyrosine, and L-valine, or salts thereof, of the same or two different kinds. The composition of the reaction mixture of total volume of 50 μL was as follows unless otherwise noted:
Reactions were carried out at 32° C. for 15 hours. 1-2 μL of reaction mixture was subjected to thin layer chromatography (TLC) analysis using as mobile phase the mixture of 2-propanol:acetone:250 mM ammonia:H2O as 100:100:12:28. […] Detection was performed at 540 nm. The new spots on TLC-plates were detected after developing the reaction mixtures, which contained: […]

Assay [5] can be described thus: Asp-Phe synthesizing activity of MBP fused His6-tagged DES. The settings on record: 160 μg DES, 100 mM L-Asp, 100 mM L-Phe, 10 mM ATP, pH 9.0, 37° C., 15 hours. As to the method:
Dipeptides synthesized by MBP fused His6-tagged DES were determined using HPLC analysis of reaction mixture of total volume of 400 μL, which contained:
Reactions were carried out at 37° C. for 15 hours. Then the reaction mixture, into which 10 μl of 1 M EDTA, pH9.0 was added to stop the enzymatic reaction, was subjected to HPLC analysis. The conditions were as described in Example 4. As a result, DES catalyzes formation of 0.30 mM Asp-Phe.

B1: BBR47_51900: L-amino acid α-ligase (hypothetical protein) from Brevibacillus brevis NBRC 100599, SEQ ID NO: 2 (protein)
chain: MNKHFLFVEANTTGTGMLAMKKARKLGFTPVFFTEKPERYHGLNELECHVVVTDTNSQAELTDSVAQVSKEGREIAGIMSTSDYYLESVAKLARKFGWISNSLEAIEACRNKAIFREKLQRHQVSQPTFLAISSMEQLLEARSSISLPCVVKPADDSGSNNVRLCFSWDEVEHMAAEILAIKYNARGQETARTVLLEQYAEGPEFSVETFSWQGQCFVIGITQKRLTGYPFFVEAGHIFPAPLSVEEKQEIERTVERALAAVKYQFGAAHTEVKWTSAGCVVIEVNARLAGGMIPELVRRSTGIDLLLQQIRCAAGLEPELSQTIEEQRCAGIHFLVSESQGTFGGIKGMDTVRNLPGIAEVAIHAKIGQNVQPPQNFSHRLGYVIVEGKHYSETAELIEQVKDSLSVQVGQQLESGV
modifications: Brevibacillus brevis NBRC 100599
Consider B1, for which the “Dipeptides (mM) Asp-Phe” value in assay [1] turned out to be 1.22 mM. Further, in assay [1], the “Dipeptides (mM) Asp-PheOMe” value came to 0.03 mM. Besides, the “Dipeptides (mM) Asp-Trp” value in assay [1] turned out to be 0.13 mM. Also, the “Dipeptides (mM) Asp-Val” value in assay [1] was found to be 3.9 mM. For the same molecule, in assay [1], the “Dipeptides (mM) Glu-Val” value worked out at 1.48 mM. The “Asp-Phe” value in assay [2] (1 hr) is on record as 7 mM; in assay [2] (2 hr), 13 mM; in assay [2] (4 hr) it was 24 mM; in assay [2] (8 hr) it was 40 mM; in assay [2] (24 hr) it was 68 mM; in assay [2] (48 hr), 74 mM. In addition, the “Dipeptides whose formation is catalyzed (LC-QTOF/MS/MS)” value in assay [3] is “αAsp-Phe, αAsp-Val, and αGlu-Val”. Also, the “L-amino acid pairs giving new spots on TLC-plates (ligation)” value in assay [4] was “L-Glu/L-Glu, or L-Glu/L-Asp, or L-Glu/L-Val, or L-Glu/L-Ile, or L-Asp/L-Ile, or L-Asp/L-Val”.

B2: DES: pyridoxal-phosphate dependent enzyme from Desmospora sp. 8437, SEQ ID NO: 6; tested as MBP fused His6-tagged DES (protein)
chain: MKKKLLFVEGNTTGTGILALEKARKLGYEPVFLTQEASRYDGLPEAKCRVHVTVTDSIHELKRCVSQEKAEAVAGILTTSDYYLEISAKLVQELGLTGNSPQAIHLCRNKALYREKLRSKSVPQPNFHIIRSMEDLRETRESVPLPCLVKPADDSGSNNVRLCFSWGEVEQLTSKILKIERNARGQKTSQTVLLEEYIEGPEYSVEMFSWQGKSTCIGITEKQLTGYPYFVESGHVFPAVLPTDVQQEIEKTVKQSLEAVHFQFGASHSEVKWTPNGCVMIETNARLAGGMIPELVRHSTGVDLIEQQILCAAGVAPHWKQVVPTGCSGIHFIVAAEAGRLSSVDNLEAVRKLPGVEEMMVKAQVGQAVQPPKNFSDRLGHVIVSGKSYEEVVERLHKISNMISLKIS
modifications: MBP fusion, His6 tag; Desmospora sp. 8437
As to B2, the Asp-Phe formed in assay [5] was 0.30 mM.
